Experimental data: article PMC10518940

Molecular target: T1, HA-CXCR4-Rluc8 (human), P61073
T1 chain: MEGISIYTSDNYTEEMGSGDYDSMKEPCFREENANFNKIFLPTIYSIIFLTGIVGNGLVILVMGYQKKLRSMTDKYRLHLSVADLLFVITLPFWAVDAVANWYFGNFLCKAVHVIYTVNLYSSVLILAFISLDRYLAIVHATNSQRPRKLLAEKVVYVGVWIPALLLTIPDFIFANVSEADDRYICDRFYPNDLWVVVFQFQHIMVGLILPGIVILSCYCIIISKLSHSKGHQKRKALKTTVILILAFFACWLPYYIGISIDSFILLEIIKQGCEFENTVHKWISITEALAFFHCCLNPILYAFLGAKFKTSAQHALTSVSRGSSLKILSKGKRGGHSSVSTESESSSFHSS
Assay: FRET or BRET; BRET2 saturation in HEK293A cells: fixed amount of GPCR-Rluc8 plasmid, increasing amounts of GPCR-GFP2 plasmid (0 to 390 ng); coelenterazine 400a 5 μM; BRET50 from the net BRET ratio
Conditions: remark: other sources report otherwise

B1: CXCR4-GFP2, P61073 1-352 (receptor)
chain: MEGISIYTSDNYTEEMGSGDYDSMKEPCFREENANFNKIFLPTIYSIIFLTGIVGNGLVILVMGYQKKLRSMTDKYRLHLSVADLLFVITLPFWAVDAVANWYFGNFLCKAVHVIYTVNLYSSVLILAFISLDRYLAIVHATNSQRPRKLLAEKVVYVGVWIPALLLTIPDFIFANVSEADDRYICDRFYPNDLWVVVFQFQHIMVGLILPGIVILSCYCIIISKLSHSKGHQKRKALKTTVILILAFFACWLPYYIGISIDSFILLEIIKQGCEFENTVHKWISITEALAFFHCCLNPILYAFLGAKFKTSAQHALTSVSRGSSLKILSKGKRGGHSSVSTESESSSFHSS
For B1, the BRET50 was 0.244.
